# According to IntAct's records for PubMed 10413501:
# B1: Ribonuclease inhibitor (Homo sapiens), P13489 (parent)
# chain: MSLDIQSLDIQCEELSDARWAELLPLLQQCQVVRLDDCGLTEARCKDISSALRVNPALAELNLRSNELGDVGVHCVLQGLQTPSCKIQKLSLQNCCLTGAGCGVLSSTLRTLPTLQELHLSDNLLGDAGLQLLCEGLLDPQCRLEKLQLEYCSLSAASCEPLASVLRAKPDFKELTVSNNDINEAGVRVLCQGLKDSPCQLEALKLESCGVTSDNCRDLCGIVASKASLRELALGSNKLGDVGMAELCPGLLHPSSRLRTLWIWECGITAKGCGDLCRVLRAKESLKELSLAGNELGDEGARLLCETLLEPGCQLESLWVKSCSFTAACCSHFSSVLAQNRFLLELQISNNRLEDAGVRELCQGLGQPGSVLRVLWLADCDVSDSSCSSLAATLLANHSLRELDLSNNCLGDAGILQLVESVRQPGCLLEQLVLYDIYWSEEMEDRLQALEKDKPSLRVIS
# Variants of: B1
# Details: with rnas1_bovin RNASE1, P61823
# Chain of rnas1_bovin RNASE1, P61823 (P61823 whole entry): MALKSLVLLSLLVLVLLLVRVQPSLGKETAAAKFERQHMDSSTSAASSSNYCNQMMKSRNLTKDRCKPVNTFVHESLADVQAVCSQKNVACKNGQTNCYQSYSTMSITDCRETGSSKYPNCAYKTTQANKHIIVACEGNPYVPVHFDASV
row,effect of a mutation on the interaction,Variant
1,decreasing interaction,MSLDIQSLDIQCEELSDARWAELLPLLQQCQVVRLDDCGLTEARCKDISSALRVNPALAELNLRSNELGDVGVHCVLQGLQTPSCKIQKLSLQNCCLTGAGCGVLSSTLRTLPTLQELHLSDNLLGDAGLQLLCEGLLDPQCRLEKLQLEYCSLSAASCEPLASVLRAKPDFKELTVSNNDINEAGVRVLCQGLKDSPCQLEALKLESCGVTSDNCRDLCGIVASKASLRELALGSNKLGDVGMAELCPGLLHPSSRLRTLWIWECGITAKGCGDLCRVLRAKESLKELSLAGNELGDEGARLLCETLLEPGCQLESLWVKSCSFTAACCSHFSSVLAQNRFLLELQISNNRLEDAGVRELCQGLGQPGSVLRVLWLADCDVSDSSCSSLAATLLANHSLRELDLSNNCLGDAGILQLVESVRQPGCLLEQLVLFDIYWSEEMEDRLQALEKDKPSLRVIS [Y435F]

# Variants of: B1
# Details: with rnas1_bovin RNASE1, P61823
# Remark: another data set of the same source
row,effect of a mutation on the interaction,Variant
1,decreasing interaction,MSLDIQSLDIQCEELSDARWAELLPLLQQCQVVRLDDCGLTEARCKDISSALRVNPALAELNLRSNELGDVGVHCVLQGLQTPSCKIQKLSLQNCCLTGAGCGVLSSTLRTLPTLQELHLSDNLLGDAGLQLLCEGLLDPQCRLEKLQLEYCSLSAASCEPLASVLRAKPDFKELTVSNNDINEAGVRVLCQGLKDSPCQLEALKLESCGVTSDNCRDLCGIVASKASLRELALGSNKLGDVGMAELCPGLLHPSSRLRTLWIWECGITAKGCGDLCRVLRAKESLKELSLAGNELGDEGARLLCETLLEPGCQLESLWVKSCSFTAACCSHFSSVLAQNRFLLELQISNNRLEDAGVRELCQGLGQPGSVLRVLWLADCDVSDSSCSSLAATLLANHSLRELDLSNNCLGDAGILQLVESVRQPGCLLEQLVLYDIFWSEEMEDRLQALEKDKPSLRVIS [Y438F]
